# Reference: patent publication US5863775A, “Control of parasites” (The University of Leeds, priority 1994, dated 1999)
# Where a SMILES comes first, the peptide text is derived from it. [ ]: non-standard residue; d: D form. The star is where a group is joined. Sta = CC(C)C[C@H](N)[C@@H](O)CC(=O)O; Isovaleryl = CC(C)CC(=O)*
# B1: egg white cystatin: protease inhibitor of cysteine proteases (a cystatin) in chick egg white (protein, UniProt P01038 24-139, looked up)
# Cystatin: SEDRSRLLGAPVPVDENDEGLQRALQFAMAEYNRASNDKYSSRVVRVISAKRQLVSGIKYILQVEIGRTTCPKSSGDLQSCEFHDEPEMAKYTTCTFVVYSIPWLNQIKLLESKCQ
# B2: Oc-I: oryzacystatin I, rice cystatin cloned from Oryza sativa L. japonica, expressed in E. coli with six N-terminal histidine residues (protein, UniProt P09229 27-140, looked up)
# Cysteine proteinase inhibitor …: EAHRAGGEGEEKMSSDGGPVLGGVEPVGNENDLHLVDLARFAVTEHNKKANSLLEFEKLVSVKQQVVAGTLYYFTIEVKEGDAKKLYEAKVWEKPWMDFKELQEFKPVDASANA
# modifications: N-terminal His6 tag
# notes: oryzacystatin I, rice cystatin cloned from Oryza sativa L. japonica, expressed in E. coli with six N-terminal histidine residues
# Experiments:
# [1] = tested on: Ascaridia galli cysteine protease; experiment: Inhibition of cysteine protease fraction from Ascaridia galli; assay type: biochemical
# [2] = tested on: Ascaripain from Ascaris suum; experiment: Sensitivity of Ascaripain to protease inhibitors; assay type: biochemical
# From the text: Ascaripain from Ascaris suum is similar to Ascaridia cysteine protease. Both prefer hydrolysis of Z-Phe-Arg-aminomethylcoumarin and both have limited action on Z-Phe-Arg-Arg-aminomethylcoumarin and Bz-Arg-aminomethylcoumarin. […] Pepstatin and serine protease inhibitors have no effect.
# Ascaridia galli = Ascaridia galli worms held in vitro for 4 days with maize inhibitor
# Procedure: 35 day old Ascaridia were removed from the host and thoroughly rinsed with 0.9% (w/v) NaCl in distilled water before transfer to 3 cm plastic Petri-dishes containing basic culture medium: CaCl2 2H2 O (0.24 mg/ml), Na2 HCO, (0.2 mg/ml), NaCl (9.0 mg/ml) and D-glucose. (1 mg/ml). Streptomycin sulphate (100 mg) and penicillin (60 u) were included to reduce microbial contamination.
# Three treatments of five replicates containing 4 worms each were used to assess the potency, of the maize inhibitor. Each treatment was carried out in the basal culture medium supplemented with:
# (i) 0.5 mg/ml bovine serum albumin (BSA);
# (ii) 0.5 mg/ml maize protein recovered by the batch method of which zeacystatin was estimated to be at 22 μg/ml;
# (iii) no supplement to the medium.
# The worms were kept for 4 days in the dark at 37° C. and solutions changed daily. Zeacystatin concentration was estimated using a papain inhibition assay as previously and by comparison of the inhibition derived from the batch method with that achieved for the zeacystatin obtained by affinity chromatography earlier.
# Caenorhabditis elegans = experiment: C. elegans feeding trials on cystatin-supplemented medium; assay type: in vivo; settings: for larvae that achieved normal development to adulthood: hatched and left to develop on supplemented media; for larvae that completed development: hatched on supplemented media, then transferred to normal media; for mean eggs laid per hermaphrodite: hermaphrodites on supplemented plates, 2.5 mg 1^-1, ten replicates
# Procedure: Caenorhabditis elegans was cultured on NGM agar carrying a lawn of OP50 E. coli as described by Wood (1988). Populations were maintained for 5 days after which time an agar plug from the colony plate was inserted onto fresh media. When required, the Oc-I (see Example 6) or BSA was added to the cooled medium to a final concentration of 2.5 mg 1^-1 just before polymerisation. Single nematodes were transferred from non-supplemented solid agar plates to plates containing Oc-I or BSA.
# Feeding trials were set-up using C. elegans to examine the effect of Oc-I on nematode survival and growth. As soon as hermaphrodites became apparent on normal agar they were transferred to individual plates containing either Oc-I or BSA and egg laying was observed. Ten replicates were carried out for each condition.
# Subsequently the larvae hatched under normal conditions were removed to media supplemented with either Oc-I or BSA. 50 larvae were removed at 6 h, 12 h, 24 h and 30 h (corresponding to the four larval stages L1, L2, L3 and L4 respectively).
# Larvae of C. elegans were transferred to agar plates with E. coli in which the medium was supplemented with 0-10 mg/L of Oc-I and the subsequent mortality of the animals during feeding was estimated from activity of the animals.
# [3] = tested on: RH strain Toxoplasma gondii in MDBK cells; experiment: Toxoplasma gondii growth in MDBK cell culture; assay type: cell-based; settings: 24 hours
# Procedure: Tachyzoites of T. gondii were produced by intraperitoneal passage in Tuck's Number 1 outbred mice, approximately 10^7 parasites are injected intra-peritoneally and parasites for culture were harvested three days later by peritoneal lavage with F12 medium and used immediately.
# MDBK cells were plated onto 13 mm cover-slip cultures at a density of 1×10^5 per cover slip and incubated overnight in HAM's F12 medium (GIBCO) plus 10% foetal calf serum at 37° C. Tachyzoites of RH strain Toxoplasma gondii (2×10^6) were loaded onto each cover slip and incubated for 4 hours at 37° C. to allow invasion of the DBK cells. Cultures were then washed with F12 medium to remove extracellular parasites and the inhibitor was added at a concentration of 0, 30 or 120 μg/ml. The cultures were incubated for a further 24 hours at 37° C. and then removed, washed with PBS, fixed with Bouin's solution and stained with Geimsa. Parasite growth was assessed by scoring approximately 200 cells for the number of infected cells and the total number of parasites in the sample.
# [4] = 30 h on normal media (L4) before transfer to supplemented media
molecule,measurement,setting,value
CC(C)C[C@H](NC(=O)[C@H]1O[C@@H]1C(=O)O)C(=O)NCCCCN=C(N)N [E64],sensitivity of Ascaridia cysteine protease to inhibitor,[1],highly sensitive
same,inhibition of proteolytic activity of protease from Ascaridia galli,"[1]; 10 μM E64, pre-incubated 20 min at 37° C., Z-Phe-Arg-β-napthylamine, FIG. 6",over 90%
same,sensitivity of Ascaripain from Ascaris suum to inhibitor,[2],highly sensitive
CC(C)CC(=O)N[C@H](C(=O)N[C@H](C(=O)N[C@@H](CC(C)C)[C@@H](O)CC(=O)N[C@@H](C)C(=O)N[C@@H](CC(C)C)[C@@H](O)CC(=O)O)C(C)C)C(C)C [Pepstatin] (Isovaleryl-VV[Sta]A[Sta]-OH),sensitivity of Ascaridia cysteine protease to inhibitor,[1],no effect
same,sensitivity of Ascaripain from Ascaris suum to inhibitor,[2],no effect
"bovine serum albumin [BSA, reference compound]",Activity Score of A. galli,"Ascaridia galli; 0.5 mg/ml supplement in basic medium (maize protein: zeacystatin estimated 22 μg/ml), 4 days, dark, 37° C., scale 0 (dead) to 3 (frequently active)",2.75 ± 0.35
same,state of worms in culture,"Ascaridia galli; 0.5 mg/ml supplement, 4 days at 37° C.",remained active for 4 days
same,larvae that achieved normal development to adulthood,Caenorhabditis elegans,95%
same,juveniles developing into adult nematodes,"Caenorhabditis elegans; hatched from eggs laid on supplemented media, transferred to normal media",All
same,larvae that completed development,Caenorhabditis elegans,96.0%
same,mean eggs laid per hermaphrodite,Caenorhabditis elegans,300
B1,sensitivity of Ascaridia cysteine protease to inhibitor,[1],highly sensitive
same,sensitivity of Ascaripain from Ascaris suum to inhibitor,[2],highly sensitive
B2,number parasites/cell,[3]; 30 μg/ml,6.3 ± 0.63
same,% cells infected,"[3]; 30 μg/ml, listed as Inhibitor",66 ± 2%
same,% cells infected,"[3]; 30 μg/ml, listed as inhibitor",66±2%
same,number parasites/cell,"[3]; 120 μg/ml, P<0.05, listed as Inhibitor",4.2 ± 0.17
same,number parasites/cell,"[3]; 120 μg/ml, P<0.05, listed as inhibitor",4.2±0.17
same,% cells infected,"[3]; 120 μg/ml, listed as Inhibitor",59 ± 0.6%
same,% cells infected,"[3]; 120 μg/ml, listed as inhibitor",59±0.6%
same,larvae that did not reach the adult stages,Caenorhabditis elegans; [4],24%
same,larvae that reached adult male or hermaphrodite stages,Caenorhabditis elegans; [4],76%
same,eggs hatched,Caenorhabditis elegans; cystatin present in the medium,Greater than 95%
same,larvae that achieved normal development to adulthood,Caenorhabditis elegans,less than 2%
same,larvae that completed development,Caenorhabditis elegans,97.0%
same,mean eggs laid per hermaphrodite,Caenorhabditis elegans,300
same,recovery of larvae after transfer to fresh unsupplemented media,Caenorhabditis elegans; larvae which failed to develop on Oc-I plates,failed to respond to the fresh food source and showed no signs of further development
same,LD50 for mortality of C. elegans larvae,"Caenorhabditis elegans; medium supplemented with 0-10 mg/L, probit analysis, FIG. 10",approximately 7 mg OcI per liter of medium
same,larvae developing further to the mature adult stages,"Caenorhabditis elegans; transferred 6, 12 or 24 h after hatching (L1, L2, L3) to supplemented media",none
